In US20180036395A1, “DOSAGE AND ADMINISTRATION OF MONOSPECIFIC AND BISPECIFIC ANTI-IGR-1R AND ANTI-ERBB3 ANTIBODIES” (Merrimack Pharmaceuticals, Inc., priority 2012, published 2018) one finds treatment outcome data, which are given here for one molecule.

This assay relates to pancreatic carcinoma. Put plainly: Treatment of patients with pancreatic cancer. It is filed as in vivo, human. On the procedure:
P4-G1-M1.3 is formulated in 20 mM histidine, 100 mM arginine-HCl, 3% sucrose, at pH 5.5 supplemented with 0.002-0.02% of Tween® 80 at concentration range 5-15 mg/mL. P4-G1-M1.3 is administered to patients at 6 mg/kg, 12 mg/kg, 20 mg/kg, 30 mg/kg, 40 mg/kg, 50 mg/kg or 60 mg/kg q7d, ql4d, q21d, or q28d with a loading dose of 12 mg/kg, 20 mg/kg, 40 mg/kg, 40 mg/kg or 60 mg/kg Everolimus is administered to patients at 2.5 mg, 5 mg, or 10 mg orally once a day or once every other day.
Patients with pancreatic carcinoma are treated with a combination of an effective amount of gemcitabine, cytarabine, capecitabine, or 5-fluorouracil (5-FU) and an effective amount of P4-G1-M1.3. Patients are dosed with P4-G1-M1.3 as described in Example 1. Patients are dosed with the manufacturer's recommended dose of gemcitabine, capecitabine or 5-FU.
Patients with pancreatic cancer (KRAS wild-type and KRAS mutant) are treated with a combination of an effective amount of a MEK inhibitor (e.g., GSK1120212, BAY 86-9766 or AZD6244) and an effective amount of P4-G1-M1.3. Patients are dosed with P4-G1-M1.3 as described in Example 1. The clinical dose of MEK inhibitor is the dose used for that inhibitor in phase II or phase III clinical trials.

B1: P4-G1-M1.3: anti-IGF-1R+anti-ErbB3 polyvalent bispecific antibody, IgG1-(scFv)2 (SEQ ID NO:148 and SEQ ID NO:149) (protein)
chain 1: EVQLLQSGGGLVQPGGSLRLSCAASGFLFSSYPMHWVRQAPGKGLEWVGSISPSGGATPYADSVKGRFTISRDNSKNTLYLQMNSLRPEDTAVYYCAKDFYNILTGNAFDKWGQGTSVTVSSASTGGGGSGGGGSGGGGSGGGGSDIQLTQSPSSLSASLGDRVTITCRASQGISSYLAWYQQKPGKAPKLLIYAGSTPQSGVPSRFSGSGSGTEFTLTISSLQPEDSGTYYCQQYWTWPLTFGGGTKVEIKRT
chain 2: EVQLVESGGGLVQPGRSLRLSCAASGFTFDDYAMHWVRQAPGKGLEWVSGISWNSGSTGYADSVKGRFTISRDNAKNSLYLQMNSLRAEDTALYYCARDLGYNQWLEGFDYWGQGTLVTVSSASTGGGGSGGGGSGGGGSGGGGSSSELTQDPAVSVALGQTVRITCQGDSLRSYYASWYQQKPGQAPVLVIYGKNNRPSGIPDRFSGSSSGNTASLTITGAQAEDEADYYCMSRDHPGNQWVFGGGTKVTVLG
modifications: Synthetic polypeptide:Anti-IGF-1R scFvs M76; Synthetic polypeptide:Anti-ErbB3 scFvs P6L
With B1, the treatment outcome was “combinatorially enhanced outcome” (pancreatic cancer (KRAS wild-type and KRAS mutant), MEK inhibitor (GSK1120212, BAY 86-9766 or AZD6244) + P4-G1-M1.3); “combinatorially enhanced outcome” (patients with pancreatic carcinoma, gemcitabine, cytarabine, capecitabine, or 5-fluorouracil + P4-G1-M1.3).
